Patent US20120052069A1

What follows are substances tested against β-Klotho overexpressed in recombinant human 293T kidney cells (assay: cell-based or functional assay).
With MKEDD-hFGF21-(L15)-hFc (Fc fusion) the EC50 (nM), ELK luciferase assay was 834 nM and the Efficacy, ELK luciferase assay was 83.1%. “hFc-(L15)-hFGF21(1-178, L98R, P171G) (Fc fusion)” was tested, and the EC50 (nM), ELK luciferase assay was 167 nM and the Efficacy, ELK luciferase assay was 63.9%. Substance “hFc-(L15)-hFGF21(L98R, P171G, 1-179) (Fc fusion)” has an EC50 (nM), ELK luciferase assay of 7.8 nM and an Efficacy, ELK luciferase assay of 77.4%. With “hFc-(L15)-hFGF21(L98R, P171G, A180P) (Fc fusion)” the EC50 (nM), ELK luciferase assay was 617 nM and the Efficacy, ELK luciferase assay was 77.1%. Work on “hFc-(L15)-hFGF21(L98R, P171G, GGGGG182-6) (Fc fusion)” yielded an EC50 (nM), ELK luciferase assay of 4310 nM and an Efficacy, ELK luciferase assay of 99.7%. “hFc-(L15)-hFGF21(L98R, P171G, S181A) (Fc fusion)” showed an EC50 (nM), ELK luciferase assay of 2.66 nM and an Efficacy, ELK luciferase assay of 73.5%. In the case of “hFc-(L15)-hFGF21(L98R, P171G, S181G) (Fc fusion)”, the EC50 (nM), ELK luciferase assay is reported as 3.43 nM and the Efficacy, ELK luciferase assay is reported as 77.3%. In the case of “hFc-(L15)-hFGF21(L98R, P171G, S181K) (Fc fusion)”, the EC50 (nM), ELK luciferase assay is reported as 130 nM and the Efficacy, ELK luciferase assay is reported as 87.9%. Work on “hFc-(L15)-hFGF21(L98R, P171G, S181L) (Fc fusion)” yielded an EC50 (nM), ELK luciferase assay of 3.46 nM and an Efficacy, ELK luciferase assay of 72.6%. Work on “hFc-(L15)-hFGF21(L98R, P171G, S181P) (Fc fusion)” yielded an EC50 (nM), ELK luciferase assay of 33.8 nM and an Efficacy, ELK luciferase assay of 79.5%. “hFc-(L15)-hFGF21(L98R, P171G, S181P, P182) (Fc fusion)” showed an EC50 (nM), ELK luciferase assay of 272 nM and an Efficacy, ELK luciferase assay of 69.9%. “hFc-(L15)-hFGF21(L98R, P171G, S181T) (Fc fusion)” gave an EC50 (nM), ELK luciferase assay of 3.07 nM and an Efficacy, ELK luciferase assay of 77.6%. “hFc-(L15)-hFGF21(L98R, P171G, Y179G) (Fc fusion)” gave an EC50 (nM), ELK luciferase assay of 61 nM and an Efficacy, ELK luciferase assay of 82.6%. “hFc-(L15)-hFGF21(L98R, P171G, Y179P) (Fc fusion)” was tested, and the EC50 (nM), ELK luciferase assay was 428 nM and the Efficacy, ELK luciferase assay was 44.4%.
